Laboratory results from PMC11727178, “Computer-Aided Design to Improve the Thermal Stability of Rhizomucor miehei Lipase” (Foods, 2024).

B1: Rhizomucor miehei lipase (RML) (Rhizomucor miehei) (protein)
chain: VPIKRQSNSTVDSLPPLIPSRTSAPSSSPSTTDPEAPAMSRNGPLPSDVETKYGMALNATSYPDSVVQAMSIDGGIRAATSQEINELTYYTTLSANSYCRTVIPGATWDCIHCDATEDLKIIKTWSTLIYDTNAMVARGDSEKTIYIVFRGSSSIRNWIADLTFVPVSYPPVSGTKVHKGFLDSYGEVQNELVATVLDQFKQYPSYKVAVTGHSLGGATALLCALDLYQREEGLSSSNLFLYTQGQPRVGDPAFANYVVSTGIPYRRTVNERDIVPHLPPAAFGFLHAGEEYWITDNSPETVQVCTSDLETSDCSNSIVPFTSVLDHLSYFGINTGLCT
B2: Rhizomucor miehei lipase (RML) (Rhizomucor miehei; E324I/N214M/N358M) (protein)
chain: VPIKRQSNSTVDSLPPLIPSRTSAPSSSPSTTDPEAPAMSRNGPLPSDVETKYGMALNATSYPDSVVQAMSIDGGIRAATSQEINELTYYTTLSANSYCRTVIPGATWDCIHCDATEDLKIIKTWSTLIYDTNAMVARGDSEKTIYIVFRGSSSIRNWIADLTFVPVSYPPVSGTKVHKGFLDSYGEVQMELVATVLDQFKQYPSYKVAVTGHSLGGATALLCALDLYQREEGLSSSNLFLYTQGQPRVGDPAFANYVVSTGIPYRRTVNERDIVPHLPPAAFGFLHAGEEYWITDNSPITVQVCTSDLETSDCSNSIVPFTSVLDHLSYFGIMTGLCT

Substrate: CCCCCCCCCCCC(=O)Oc1ccc([N+](=O)[O-])cc1
Assay: p-nitrophenol release, Michaelis-Menten
Format: biochemical, Rhizomucor miehei

Protein | Km (at the enzyme's optimal conditions (optimum 45 °C)) [µM] | Km (at the enzyme's optimal conditions (optimum 55 °C)) [µM]
B1 | 92 | 
B2 |  | 31.75
